Results reported in the Human Domainome abundance scans (Beltran et al. 2025).
± gives the uncertainty stated by the source.

B1: POU domain, class 3, transcription factor 3, residues 320 to 388; numbered along this chain, P20264 (parent)
chain: DDLEQFAKQFKQRRIKLGFTQADVGLALGTLYGNVFSQTTICRFEALQLSFKNMCKLKPLLNKWLEEAD

Variants of: B1
Test: abundance fitness (aPCA) (normalised: wild type 0, dead -1); higher = more abundant; growth selection in yeast, the domain comes from the species named
Details: Homo sapiens

Abundance fitness of substitutions, site by site:
L49: W -0.021 ± 0.17, E -0.573 ± 0.087, S -0.649 ± 0.11, F -0.865 ± 0.4, R -0.385 ± 0.092, I -1.01 ± 0.43, M -0.078 ± 0.074, P -0.65 ± 0.18, N -0.594 ± 0.34, C -0.873 ± 0.29, Y -0.582 ± 0.26, H -0.697 ± 0.18, K -0.548 ± 0.13, V -0.934 ± 0.16, T -0.846 ± 0.17, A -0.441 ± 0.15
F44: M -0.725 ± 0.18, G -0.772 ± 0.14, K -0.696 ± 0.24, P -1.02 ± 0.42, W -0.568 ± 0.15, R -0.946 ± 0.19, A -1.04 ± 0.43, L -0.859 ± 0.18, V -0.678 ± 0.2
Q48: M -0.599 ± 0.19, K -0.177 ± 0.2, S -0.205 ± 0.098, R -0.416 ± 0.13, E -0.088 ± 0.18, W -0.453 ± 0.22, A -0.612 ± 0.24, L -0.375 ± 0.21, G -0.264 ± 0.19, I -0.835 ± 0.36, T -0.187 ± 0.24
M54: T -0.733 ± 0.45, Q -0.7 ± 0.25, L -0.428 ± 0.095, W -0.801 ± 0.3, F -0.96 ± 0.35, C -0.636 ± 0.28, I -0.911 ± 0.44, S -0.483 ± 0.14, P -1.05 ± 0.27, R -0.909 ± 0.2
S37: A -0.246 ± 0.13, V -0.7 ± 0.19, N -0.338 ± 0.3, T -0.337 ± 0.14, R -0.55 ± 0.12, L -0.629 ± 0.11, G -0.44 ± 0.12, D -0.157 ± 0.4, K -0.532 ± 0.18, Q -0.386 ± 0.26, E -0.32 ± 0.13, C -0.629 ± 0.26, Y -0.725 ± 0.3, H -0.076 ± 0.11, F -0.841 ± 0.28
N34: Y -0.295 ± 0.044, I -0.235 ± 0.16, V -0.21 ± 0.078, L -0.468 ± 0.14, S 0.109 ± 0.066, R -0.051 ± 0.072, H -0.094 ± 0.091, K 0.081 ± 0.13, W -0.84 ± 0.23, Q -0.172 ± 0.14, M -0.22 ± 0.13, G 0.074 ± 0.066, F -0.569 ± 0.2, T -0.098 ± 0.17
L57: A -0.602 ± 0.17, H -0.333 ± 0.2, P 0.029 ± 0.14, R -0.715 ± 0.091, G -0.78 ± 0.2, W -0.401 ± 0.12, T -0.698 ± 0.35, E -1.16 ± 0.42, S -0.572 ± 0.16, V -0.535 ± 0.082, K -0.645 ± 0.36, M -0.279 ± 0.15
T39: M -0.502 ± 0.13, S -0.099 ± 0.095, E 0.11 ± 0.11, D 0.014 ± 0.2, F -0.509 ± 0.32, K -0.006 ± 0.18, G -0.215 ± 0.083, L -0.195 ± 0.086, Y -0.769 ± 0.33, W -0.846 ± 0.23, Q -0.077 ± 0.13, A -0.011 ± 0.085, H 0.074 ± 0.39, I -0.157 ± 0.14, P -0.579 ± 0.18, R -0.058 ± 0.07
L47: F -0.293 ± 0.21, G -0.038 ± 0.067, R 0.039 ± 0.067, N 0.599 ± 0.44, D -0.661 ± 0.24, E -0.662 ± 0.29, V -0.039 ± 0.065, Y -0.131 ± 0.2, A -0.342 ± 0.15, S -0.29 ± 0.12, C 0.021 ± 0.38, M 0.113 ± 0.21, T -0.602 ± 0.17, K -0.111 ± 0.2, H 0.083 ± 0.17
S50: N -0.922 ± 0.44, Q 0.161 ± 0.13, E -0.18 ± 0.16, G -0.561 ± 0.12, V -1.04 ± 0.3, P 0.034 ± 0.079, A -0.751 ± 0.25, K -0.302 ± 0.16, D -0.074 ± 0.14, C -0.786 ± 0.26, L -0.833 ± 0.21, F -0.711 ± 0.32
E45: M -0.82 ± 0.36, F -0.58 ± 0.48, V -0.946 ± 0.39, P -0.803 ± 0.33, A -0.511 ± 0.21, T -0.729 ± 0.2, K -0.649 ± 0.17, G -0.982 ± 0.23, R -0.891 ± 0.18, S -0.628 ± 0.23, W -0.787 ± 0.18, L -0.628 ± 0.22, Q 0.081 ± 0.18
C42: N 0.208 ± 0.04, D 0.032 ± 0.11, A 0.076 ± 0.079, L -0.193 ± 0.07, I 0.11 ± 0.17, T -0.176 ± 0.1, W -0.38 ± 0.078, S -0.14 ± 0.089, R 0.054 ± 0.061, Y 0.055 ± 0.11, K 0.13 ± 0.099, G -0.014 ± 0.048, P -0.276 ± 0.092, Q 0.06 ± 0.081, M -0.284 ± 0.12, H -0.006 ± 0.24
T40: S -0.49 ± 0.11, K -0.179 ± 0.097, R -0.583 ± 0.086, A -0.386 ± 0.1, Q -0.102 ± 0.078, H -0.778 ± 0.4, W -0.441 ± 0.12, C -0.615 ± 0.16, N -0.734 ± 0.32, D -0.393 ± 0.36, Y -0.59 ± 0.25, E -0.237 ± 0.11, I -0.553 ± 0.22, V -0.174 ± 0.088, P -0.704 ± 0.46, G -0.92 ± 0.15
K58: R 0.031 ± 0.087, C 0.152 ± 0.27, I -0.416 ± 0.34, A -0.337 ± 0.094, V -0.398 ± 0.24, L -0.875 ± 0.22, T -0.892 ± 0.17, G -0.852 ± 0.22, S -0.796 ± 0.33
F51: T 0.061 ± 0.1, V 0.013 ± 0.063, C -0.416 ± 0.13, M -0.231 ± 0.11, S -0.002 ± 0.069, E 0.115 ± 0.11, W -0.567 ± 0.19, D -0.14 ± 0.12, Q 0.142 ± 0.11, G -0.136 ± 0.088, K 0.132 ± 0.13, H 0.051 ± 0.18, Y -0.247 ± 0.18, P 0.064 ± 0.06, N -0.002 ± 0.15, I -0.51 ± 0.26, R 0.035 ± 0.065, A -0.081 ± 0.081
F36: H -0.216 ± 0.19, Y -0.04 ± 0.14, Q -0.214 ± 0.17, T 0.071 ± 0.11, R 0.368 ± 0.17, A -0.068 ± 0.16, P -0.043 ± 0.2, L -0.07 ± 0.078, K -0.364 ± 0.2, M 0.021 ± 0.13, V 0.017 ± 0.073, C 0.219 ± 0.22, E -0.121 ± 0.2, W -0.714 ± 0.23
K56: D -0.163 ± 0.14, G -0.539 ± 0.093, P -0.848 ± 0.28, F -0.11 ± 0.19, Y -0.753 ± 0.45, L -0.079 ± 0.064, M -0.173 ± 0.11, R 0.017 ± 0.053, S -0.181 ± 0.08, C -0.391 ± 0.16, E -0.066 ± 0.1, W -0.548 ± 0.12, N -0.44 ± 0.24, I -0.063 ± 0.2, H -0.61 ± 0.42
R43: C -0.447 ± 0.37, H -0.586 ± 0.2, E -0.076 ± 0.1, K -0.034 ± 0.11, Q -0.113 ± 0.3, L -0.858 ± 0.17, P -0.975 ± 0.5, T -0.946 ± 0.43, W -0.866 ± 0.31, D -0.402 ± 0.26, G -0.798 ± 0.12, M -0.62 ± 0.47
Q38: G 0.003 ± 0.065, K -0.18 ± 0.1, V -0.421 ± 0.09, N -0.435 ± 0.38, C -0.32 ± 0.15, T 0.079 ± 0.076, S -0.082 ± 0.062, R -0.103 ± 0.066, M -0.498 ± 0.11, P -0.028 ± 0.12, H -0.524 ± 0.31, F -0.356 ± 0.21, A -0.143 ± 0.1, Y -0.207 ± 0.28, E 0.192 ± 0.089, L -0.531 ± 0.097, D -0.075 ± 0.4
V35: T 0.304 ± 0.11, L -0.462 ± 0.13, I -0.609 ± 0.16, D 0.091 ± 0.086, F -0.179 ± 0.069, G -0.204 ± 0.13, Q 0.033 ± 0.11, E 0.172 ± 0.11, S -0.125 ± 0.085, C -0.417 ± 0.17, M -0.278 ± 0.28, R -0.009 ± 0.071, N -0.601 ± 0.41, P -0.105 ± 0.44, A -0.537 ± 0.26, Y -0.108 ± 0.09, H -0.152 ± 0.2
K52: N -0.093 ± 0.2
N53: D 0.012 ± 0.16, S -0.257 ± 0.069, A -0.035 ± 0.04, P -0.613 ± 0.12, E 0.049 ± 0.1, T 0.051 ± 0.083, C -0.255 ± 0.15, M 0.114 ± 0.069, H -0.09 ± 0.14, F -0.513 ± 0.23, G -0.148 ± 0.04, W -0.102 ± 0.046, V -0.306 ± 0.093, R -0.037 ± 0.052, I -0.167 ± 0.18, L -0.148 ± 0.059, Y -0.357 ± 0.17, Q -0.044 ± 0.074
A46: H -0.043 ± 0.15, C -0.299 ± 0.13, P -0.843 ± 0.22, V -0.702 ± 0.16, M 0.22 ± 0.18, S -0.059 ± 0.1, W -0.601 ± 0.17, T -0.142 ± 0.14, I -0.727 ± 0.2, Q -0.282 ± 0.29, G -0.053 ± 0.035, K 0.205 ± 0.17, D -0.573 ± 0.37, E -0.178 ± 0.15, R -0.277 ± 0.12
P59: L -0.378 ± 0.2, E -0.353 ± 0.3, Q -0.333 ± 0.12, G -0.166 ± 0.17, M -0.279 ± 0.15, C -0.064 ± 0.12, K -0.247 ± 0.21
C55: F 0.253 ± 0.19, Q 0.209 ± 0.1, L -0.156 ± 0.081, K -0.009 ± 0.13, Y -0.269 ± 0.3, I -0.046 ± 0.24, S -0.102 ± 0.1, E -0.255 ± 0.18, V 0.019 ± 0.077, G -0.354 ± 0.048, W -0.177 ± 0.092, H -0.199 ± 0.27, T -0.186 ± 0.095, N -0.102 ± 0.24, M -0.032 ± 0.1, P -0.874 ± 0.32
